# Results as given in US20230391879A1 (INTERVET, published 2023).
# T1: Canine IL-31RA ECD-10His (canine)
# T1 construct: made in HEK-293 or CHO cells and coated on the ELISA plates; also called canine IL-31 receptor alpha extracellular domain HIS-tagged protein; cIL-31RA
# T1 chain: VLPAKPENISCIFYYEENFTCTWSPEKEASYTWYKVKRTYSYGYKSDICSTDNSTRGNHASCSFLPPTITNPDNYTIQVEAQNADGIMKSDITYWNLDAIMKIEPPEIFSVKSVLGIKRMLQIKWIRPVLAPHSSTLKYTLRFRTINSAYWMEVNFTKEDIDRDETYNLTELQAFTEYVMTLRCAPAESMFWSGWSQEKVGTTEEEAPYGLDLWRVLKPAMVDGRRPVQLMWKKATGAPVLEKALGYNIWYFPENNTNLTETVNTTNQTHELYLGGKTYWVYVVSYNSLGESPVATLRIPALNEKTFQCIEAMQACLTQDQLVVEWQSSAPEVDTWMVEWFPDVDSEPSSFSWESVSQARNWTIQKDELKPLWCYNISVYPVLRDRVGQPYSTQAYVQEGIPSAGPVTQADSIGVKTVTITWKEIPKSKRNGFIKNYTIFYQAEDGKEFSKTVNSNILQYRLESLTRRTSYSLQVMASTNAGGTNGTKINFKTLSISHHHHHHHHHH
# How the values were obtained:
# Canine IL-31RA ECD-10His [1] = biological target: T1, Canine IL-31RA ECD-10His; test: ELISA, IL-31RA coated
# Canine IL-31RA ECD-10His [2] = biological target: T1, Canine IL-31RA ECD-10His; test: ELISA (FIG. 6B)
# Canine IL-31RA ECD-10His [3] = biological target: T1, Canine IL-31RA ECD-10His; test: ELISA (FIG. 6C)
Binder,binding result (Canine IL-31RA ECD-10His [1]),also measured
"4G7 (antibody, V domains shown, Rat monoclonal antibody from a hybridoma; also called rat mAb 4G7) VH: EVQLQQYGAELGKPGTSVKLSCKVSGYNIRSTFMHWVNQRPGKGLEWIGRIDPVNGNTIYSEKFKSKATLTADTSSNTAYMQLSQLKSDDTAIYFCAMFNYAGHSGDYWGQGVMVTVSS VL: DIQMTQSPSSMSVSLGDTVTITCRASQDVGIYVNWFQQKPGKSPRRMIYRATNLADGVPSRFSGSRSGSDYSLTISSLESEDVADYHCLQYDEYPYTFGAGTKLELK",binds,
"caninized 28F12VH2VK3 (antibody, V domains shown, Caninized antibody, canine IgG-Bm heavy chain and canine kappa light chain; also called c28F12; c28F12VH2-cIgGBm + c28F12VK3-cCK) VH: EVQLVESGGDLVKPGGSLRLSCAASGFTFSDYYMAWVRQAPGKGLQWVATISYDGSSTYYRDSVRGRFTISRDNAKNTLYLQMNSLRAEDTAMYYCARGPLTDWAPNWFAYWGQGTLVTVSS VL: DIVMTQSPASLSLSQEEKVTITCQTSEDIYSGLAWYQQKPGQAPKLLIYGASRLEDGVPSRFSGSGSGTDFSFTISSLEPEDVAVYFCQQGLKYPNTFGAGTKVELKR",,binding result (Canine IL-31RA ECD-10His [2]): binds
"caninized 28F12VH1VK4 (antibody, V domains shown, Caninized antibody, canine IgG-Bm heavy chain and canine kappa light chain; also called c28F12VH1-cIgGBm + c28F12VK4-cCK) VH: EVQLVESGGDLVKPGGSLRLSCVASGFTFSDYYMAWVRQAPGKGLQWVATISYDGSSTYYRDSVRGRFTISRDNAKNTLYLQMNSLRAEDTAMYYCAKGPLTDWAPNWFAYWGQGTLVTVSS VL: DIVMTQTPLSLSVSPGETASISCQTSEDIYSGLAWFRQKPGQSPQLLIYGASRLEDGVPDRFSGSGSGTDFTLRISTVEADDTGVYFCQQGLKYPNTFGAGTKVELKR",,binding result (Canine IL-31RA ECD-10His [2]): binds
"caninized 28F12VH2VK4 (antibody, V domains shown, Caninized antibody, canine IgG-Bm heavy chain and canine kappa light chain; also called c28F12VH2-cIgGBm + c28F12VK4-cCK) VH: EVQLVESGGDLVKPGGSLRLSCAASGFTFSDYYMAWVRQAPGKGLQWVATISYDGSSTYYRDSVRGRFTISRDNAKNTLYLQMNSLRAEDTAMYYCARGPLTDWAPNWFAYWGQGTLVTVSS VL: DIVMTQTPLSLSVSPGETASISCQTSEDIYSGLAWFRQKPGQSPQLLIYGASRLEDGVPDRFSGSGSGTDFTLRISTVEADDTGVYFCQQGLKYPNTFGAGTKVELKR",,binding result (Canine IL-31RA ECD-10His [2]): binds
"caninized 28F12VH2VK2 (antibody, V domains shown, Caninized antibody, canine IgG-Bm heavy chain and canine kappa light chain; also called caninized 28F12VH2K2; c28F12) VH: EVQLVESGGDLVKPGGSLRLSCAASGFTFSDYYMAWVRQAPGKGLQWVATISYDGSSTYYRDSVRGRFTISRDNAKNTLYLQMNSLRAEDTAMYYCARGPLTDWAPNWFAYWGQGTLVTVSS VL: EIVMTQSPASLSLSQEEKVTITCQTSEDIYSGLAWYQQKPGQAPKLLIYGASRLEDGVPSRFSGSGSGTDFSFTISSLEPEDVAVYYCQQGLKYPNTFGAGTKVELKR",,binding result (Canine IL-31RA ECD-10His [2]): binds
"caninized 28F12VH1VK3 (antibody, V domains shown, Caninized antibody, canine IgG-Bm heavy chain and canine kappa light chain; also called c28F12VH1-cIgGBm + c28F12VK3-cCK) VH: EVQLVESGGDLVKPGGSLRLSCVASGFTFSDYYMAWVRQAPGKGLQWVATISYDGSSTYYRDSVRGRFTISRDNAKNTLYLQMNSLRAEDTAMYYCAKGPLTDWAPNWFAYWGQGTLVTVSS VL: DIVMTQSPASLSLSQEEKVTITCQTSEDIYSGLAWYQQKPGQAPKLLIYGASRLEDGVPSRFSGSGSGTDFSFTISSLEPEDVAVYFCQQGLKYPNTFGAGTKVELKR",,binding result (Canine IL-31RA ECD-10His [2]): binds
"caninized 44E2VH2VK1 (antibody, V domains shown, Caninized antibody, canine IgG-Bm heavy chain and canine kappa light chain; also called c44E2; c44E2VH2-cIgGBm + c44E2VK1-cCK) VH: EVQLVESGGDLVKPEGSLRLSCVVSGFSLTSNGVSWVRQAPGKGLQWIAAISSGGSTYYNSVLKSRLTISRDNAKNTLYLQMNSLRTEDTAVYYCARRLSGYNYVPFAYWGQGTLVTVSS VL: EIVMTQSPASLSLSQEEKVTITCKASQNIYKHLAWYQQKPGQAPKLLIYNANSLQTGVPSRFSGSGSGTDFSFTISSLEPEDVAVYYCQQYYSGDTFGAGTKVELKR",,binding result (Canine IL-31RA ECD-10His [3]): binds
"47F3 (antibody, V domains shown, Rat monoclonal antibody from a hybridoma; also called rat mAb 47F3) VH: EVQLVESGGGLVQPGRSMKLSCVASGFTFSNYYMAWVRQAPTKGLEWVASISTGGGNTYYRDSVKGRFTISRDNAKSTLYLQMDSLRSEDTATYYCARHGTLYFDYWGQGVMVTVS VL: QFTLTQPKSVSGSLRSTITIPCERSSGDIGNTYVSWYQQHLGRPPINVIYADDQRPSEVSDRFSGSIDSSSNSASLTITNLQMDDEADYFCQSYDSNIDGPVFGGGTKLTVL",binds,
"51G4 (antibody, V domains shown, Rat monoclonal antibody from a hybridoma; also called rat mAb 51G4) VH: EVQLVESGGGLVQPGRSMKLSCAALGFTFSNYYMAWVRQAPTKGLEWVASISTGGGNTYYRDSVKGRFTISRDNAKNTLYLQMDSLRSEDTATYYCARHGTIAAMDYWGQGVMVTVSS VL: QFTLTQPKSVSGSLRSTITIPCERNNGDIGDSYVSWYQQHLGRPPIIVIYADDQRPSEVSDRFSGSIDSSSNSASLTITNLQMDDEADYFCQSYDSNIDGPVFGGGTKLTVL",binds,
"49D3 (antibody, V domains shown, Rat monoclonal antibody from a hybridoma; also called rat mAb 49D3) VH: EVQLVESGGGLVQPGRSMKLSCAASGFTFSNYYMAWVRQAPTKGLEWVASISTGGGNTYYRDSVKGRFTISRDNAKSTLYLQMDSLRSEDTATYYCARHGTLYFDYWGQGVMVTVSS VL: QFTLTQPKSVSGSLRSTITIPCERSSGDIGDSYVSWYQQHLGRPPINVIYADDQRPSEVSDRFSGSIDSSSNSASLTITNLQMDDEADYFCQSYDSNIDGPVFGGGTKLTVL",binds,
"53B3 (antibody, V domains shown, Rat monoclonal antibody from a hybridoma; also called rat mAb 53B3) VH: EVQLVESGGGLVQPGRSMKLSCAAFGFTFNNYYMAWVRQAPTKGLEWVASISTGGGNTFYRDSVKGRFTISRDNVKSILSLQMDSLRSEDTATYYCARHGTIAAMDYWGQGVMVTVSS VL: QFTLTQPKSVSGSLRSTITIPCERTSGDIGDNYVSWYQQHLGRPPINVIYADDQRPSEVSDRFSGSIDSSSNSASLTITNLQMDDEADYFCQSYDSNIDGPVFGGGTKLTVL",binds,
"48B1 (antibody, V domains shown, Rat monoclonal antibody from a hybridoma; also called rat mAb 48B1) VH: EVQLVESGGGLVQPGRTLKLFCVASGFTFNNYWMTWIRQAPGKGLEWVASITNTGGSTYYPDSVKGRFTISRDNAKSTLYLQMNSLRSEDTATYYCTRGPDYGGHLNWFVYWGQGTLVTVSS VL: DIVMTQSPTSMSISVGDRVTMNCKASQNVGSNVDWYQQKTGQSPKLLIYKASNRYTGVPDRFTGSGSGTDFTFTISNMQAEDLAVYYCMQSNSYPPTFGGGTKLELK",binds,
"20B8 (antibody, V domains shown, Rat monoclonal antibody from a hybridoma; also called rat mAb 20B8) VH: EVQLVESGGGLVQPGRSLKLSCVASGFTFNNYWMTWIRQAPGKGLEWVASITNTGGSTYYPDSVKGRFTISRDNAKSTLYLQMNSLRSEDTATYYCTRGPTTVVGGWFAYWGQGTLVTVSS VL: DIVMTQSPTSMSISVGDRVTMNCKASQNVGSNVDWYQQKTGQSPKLLIYRPSNRYTGVPDRFTGSGSGTDFTFTISNMQAEDLAVYYCMQSNSYPPTFGGGTKLELK",binds,
"22B4 (antibody, V domains shown, Rat monoclonal antibody from a hybridoma; also called rat mAb 22B4) VH: EVQLVESGGGLVQPGRSLKLSCVASGFTFNKYWMTWIRQAPGKGLEWVASITNTGGSSYYSDSVKGRFTISRDNAKSTLYLQMNSLRSEETATYYCTRGPDYGGHLNWFAYWGQGTLVTVSS VL: DIVMTQSPTSMSISVGDRVTMNCKASQNVGSNVDWYQEKTGQSPKLVIYKASNRYTGVPDRFTGSGSGTDFTFTISNMQAEDLAVYYCMQSNSYPPTFGGGTKLELK",binds,

# Now from value to binder, other results behind:
binding result (Canine IL-31RA ECD-10His [1]),Binder,also measured
binds,"44E2 (antibody, V domains shown, Rat monoclonal antibody from a hybridoma; also called rat mAb 44E2) VH: QVQLKESGPGLVQPSQTLSLTCTVSGFSLTSNGVSWVRQPPGKGLEWIAAISSGGSTYYNSVLKSRLSISRDTSKSQVFLKMNSLQTEDTAIYFCTRRLSGYNYVPFAYWGQGTLVTVSS VL: DIQMTQSPSLLSASVGDRVTLNCKASQNIYKHLAWCQQKLGEPPNLLISNANSLQTGIPSRFSGSGSGTDFTLTISSLQPEDVATYFCQQYYSGDTFGAGTKLELK",
binds,"10A12 (antibody, V domains shown, Rat monoclonal antibody from a hybridoma; also called rat mAb 10A12) VH: EVQLVESGGGLVKPGRSMKLSCAASGFTFSNYYMAWVRQAPTKGLEWVASISTGGGNTYYRDSVKGRFTISRDNAKRTLYLQMDSLRSEDTATYYCGRHGTLYFDYWGQGVMVTVSS VL: QFTLTQPKSVSGSLRSTITIPCERSSGDIGDSYVSWYQQHLGRPPINVIYVDDQRPSEVSDRFSGSIDSSSNSASLTITDLQMDDEADYFCQSYDSNIDGPVFGGGTKLTVL",
binds,"27A10 (antibody, V domains shown, Rat monoclonal antibody from a hybridoma; also called rat mAb 27A10) VH: EVQLVESGGGLVQPGRSMKLSCTASGFTFSNYYMAWVRQAPTKGLEWVASISTGGGNTYYRDSVKGRFTISRDNAKSTLYLQMDSLRAEDTATYYCARHTMGYFDYWGQGVMVTVSS VL: QFTLTQPKSVSGSLRSTITIPCERSSGDIGDNYVSWYQQHLGRPPINVIYADDQRPSEVSDRFSGSIDSSSNSASLTITNLQMDDEADYFCQSYDGKIEIPVFGGGTKLTVL",
binds,"28F12 (antibody, V domains shown, Rat monoclonal antibody from a hybridoma; also called rat mAb 28F12) VH: EVQLVESDGGLAQPGRSLKLSCAASGFTFSDYYMAWVRQAPTKGLEWVATISYDGSSTYYRDSVRGRFTISRDNAKSTLYLQMDSLRSEDTATYYCARGPLTDWAPNWFAYWGQGTLVTVSS VL: DIQMTQSPASLSASLGETVTIQCQTSEDIYSGLAWYQQKPGKSPQFLIYGASRLEDGVPSRFSGSGSGTQYSLKISSMQTEDEGVYFCQQGLKYPNTFGAGTKLELK",
binds,"7D7 (antibody, V domains shown, Rat monoclonal antibody from a hybridoma; also called rat mAb 7D7) VH: EVQLVESGGGLVQPGRSLKLSCVASGFTFNNYWMTWIRQAPGKGLEWVASITNTGGSTFYPDSVKGRFTISRDNAKSTLYLQMNSLRSEDTATYYCTRGPDYGGHLNWFAYWGQGTLVTVSS VL: DIVMTQSPTSMSISAGDRVTMNCKASQNVGSNVDWYQQKTGQSPKLLIYKASNRYTGVPDRCTGSGSGTDFTFTISNMQAEDLAVYYCMQSNSYPPTFGGGTKLELK",
